Our source for the HTP-1 bound, percent of the amount bound to the wild-type complex values is publication PMC4624198.

The assay concerns the target T1, HTP-3 (G490K, G728K), Strep-tagged (C. elegans), O01820.
T1 chain: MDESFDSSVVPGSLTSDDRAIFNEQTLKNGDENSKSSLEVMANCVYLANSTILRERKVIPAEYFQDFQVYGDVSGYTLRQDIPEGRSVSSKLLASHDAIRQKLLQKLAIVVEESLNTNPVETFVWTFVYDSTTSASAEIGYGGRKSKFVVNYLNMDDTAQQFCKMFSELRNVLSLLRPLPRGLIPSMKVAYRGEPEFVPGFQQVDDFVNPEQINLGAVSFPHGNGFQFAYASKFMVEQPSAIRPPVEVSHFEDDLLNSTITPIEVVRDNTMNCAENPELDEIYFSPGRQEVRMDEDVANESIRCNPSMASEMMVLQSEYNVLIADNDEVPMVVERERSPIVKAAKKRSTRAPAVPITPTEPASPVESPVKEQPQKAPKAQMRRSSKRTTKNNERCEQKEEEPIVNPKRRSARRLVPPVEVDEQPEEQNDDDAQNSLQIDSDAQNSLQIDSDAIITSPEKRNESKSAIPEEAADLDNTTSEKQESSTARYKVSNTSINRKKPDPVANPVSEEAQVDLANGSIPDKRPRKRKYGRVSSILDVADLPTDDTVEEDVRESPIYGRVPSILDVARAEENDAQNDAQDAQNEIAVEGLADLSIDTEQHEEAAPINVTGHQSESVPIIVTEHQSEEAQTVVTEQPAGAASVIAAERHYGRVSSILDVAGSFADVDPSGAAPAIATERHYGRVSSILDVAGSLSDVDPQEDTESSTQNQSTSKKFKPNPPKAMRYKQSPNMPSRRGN
The experiment in a line: pull-down. The conditions noted are these: remark: other sources report otherwise.

B1: HTP-1, untagged, Q20305 1-352 (natural protein)
chain: MAPLETIYDESLNKSADSIDDKKWSKLFPRIVSDPDRSSNFMTRAIYVAFSAVLRNRNILGQEYFTKNYITEKLKCMTLCFRNPRSNQIAQLLRNAGDATKDGFLKEVSLVITNNEGDLEAIEVFSMKFIYFENGGVVARLSTDKNGQEDPHFAKLAQLVYEGGDSVRDQMVTIVRSVQFLCTKVLEPLPEEFTANFRLEYTNDAPSNFRIDGFEDSSTFYTLPDDIQSATIGHLRPGCHAANMECWSMLMSDSYEAELTLKRHLDKVSDRHGFNPVNVLYKSFNSEDSDTSLSQATTESVNDQGGNETSPVDDITESLEKAQMSPIQTRPTTRRGADGSKTRSSPYSRSCK
The molecule B1 showed an HTP-1 bound, percent of the amount bound to the wild-type complex of 10%.
